Measured values as given in publication PMC10182306.

Target: human platelet actin (human) (UniProt P60709)
Experiment: co-sedimentation

percent of input pelleted with F-actin: 77%
Substance: α-actinin (from UniProt P12814 1-892) (natural protein)
